The labels stand for the following.
B1: E27 IgG1 variant K326(345)N (antibody)
heavy: not shown
light: DIQLTQSPSSLSASVGDRVTITCRASKPVDGEGDSYLNWYQQKPGKAPKLLIYAASYLESGVPSRFSGSGSGTDFTLTISSLQPEDFATYYCQQSHEDPYTFGQGTKVEIKRTVAAPSVFIFPPSDEQLKSGTASVVCLLNNFYPREAKVQWKVDNALQSGNSQESVTEQDSKDSTYSLSSTLTLSKADYEKHKVYACEVTHQGLSSPVTKSFNRGEC
notes: also called IG2 209
B2: E27 IgG1 variant P331(350)K (antibody)
heavy: not shown
light: B1 light
B3: E27 IgG1 variant K334(353)E (antibody)
heavy: not shown
light: B1 light
B4: E27 IgG1 variant K326(345)Q (antibody)
heavy: not shown
light: B1 light
notes: also called IG2 210
B5: E27 IgG1 variant K334(353)D (antibody)
heavy: not shown
light: B1 light
notes: also called IG2 140
B6: E27 IgG1 variant S324(343)K (antibody)
heavy: not shown
light: B1 light
notes: also called IG2 215
B7: E27 IgG1 variant N286(303)S (antibody)
heavy: not shown
light: B1 light
notes: also called IG2 237
B8: E27 IgG1 variant K334(353)N (antibody)
heavy: not shown
light: B1 light
B9: E27 IgG1 variant K326(345)S (antibody)
heavy: not shown
light: B1 light
B10: E27 IgG1 variant K334(353)Q (antibody)
heavy: not shown
light: B1 light
B11: E27 IgG1 variant S324(343)E (antibody)
heavy: not shown
light: B1 light
notes: also called IG2 216
B12: E27 IgG1 variant P331(350)N (antibody)
heavy: not shown
light: B1 light
notes: also called IG2 199
B13: E27 IgG1 variant K338(358)M (antibody)
heavy: not shown
light: B1 light
B14: E27 IgG1 variant R292(309)H (antibody)
heavy: not shown
light: B1 light
notes: also called IG2 81
B15: E27 IgG1 variant N276(289)Q (antibody)
heavy: not shown
light: B1 light
notes: also called IG2 233
B16: E27 IgG1 variant R292(309)Q (antibody)
heavy: not shown
light: B1 light
notes: also called IG2 82
B17: E27 IgG1 variant K334(353)R (antibody)
heavy: not shown
light: B1 light
B18: E27 IgG1 variant S298(317)G (antibody)
heavy: not shown
light: B1 light
notes: also called IG2 70
B19: E27 IgG1 variant K334(353)S (antibody)
heavy: not shown
light: B1 light
B20: E27 IgG1 variant S298(317)T (antibody)
heavy: not shown
light: B1 light
notes: also called IG2 71
B21: E27 IgG1 variant N286(303)Q (antibody)
heavy: not shown
light: B1 light
notes: also called IG2 23
B22: E27 IgG1 variant S298(317)N (antibody)
heavy: not shown
light: B1 light
notes: also called IG2 72
B23: E27 IgG1 variant S298(317)L (antibody)
heavy: not shown
light: B1 light
B24: E27 IgG1 variant S298(317)V (antibody)
heavy: not shown
light: B1 light
notes: also called IG2 218
B25: E27 IgG1 variant N286(303)D (antibody)
heavy: not shown
light: B1 light
notes: also called IG2 238
B26: E27 IgG1 variant N276(289)K (antibody)
heavy: not shown
light: B1 light
B27: E27 IgG1 variant R292(309)K (antibody)
heavy: not shown
light: B1 light
notes: also called IG2 80
B28: E27 IgG1 variant P331(350)E (antibody)
heavy: not shown
light: B1 light
notes: also called IG2 200
B29: E27 IgG1 variant R292(309)N (antibody)
heavy: not shown
light: B1 light
notes: also called IG2 83
B30: E27 IgG1 variant P331(350)S (antibody)
heavy: not shown
light: B1 light
notes: also called IG2 198
B31: E27 IgG1 variant K334(353)V (antibody)
heavy: not shown
light: B1 light
notes: also called IG2 220
B32: E27 IgG1 variant K334(353)L (antibody)
heavy: not shown
light: B1 light
notes: also called IG2 221
B33: E27 IgG1 variant R301(320)M (antibody)
heavy: not shown
light: B1 light

For the first test, the target named is T1, human FcγRIIA-R131 α subunit extracellular domain-6His-GST fusion (human, UniProt P12318 34-217).
T1 construct: also called FcγRIIA-Arg131; not shown: glutathione S-transferase (GST)
T1 sequence: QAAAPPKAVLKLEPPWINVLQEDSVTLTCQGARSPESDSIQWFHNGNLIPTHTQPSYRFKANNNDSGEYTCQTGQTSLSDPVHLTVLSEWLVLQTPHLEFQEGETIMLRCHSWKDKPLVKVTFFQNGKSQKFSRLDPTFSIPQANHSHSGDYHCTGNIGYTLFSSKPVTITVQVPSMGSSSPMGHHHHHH
Briefly: ELISA, IgG:IgE hexamers on receptor-GST.
In the case of B1, the “ratio to native IgG1” value amounted to 1.04.

As to B2, the “ratio to native IgG1” value came to 0.94.

Regarding B3, the “ratio to native IgG1” value worked out at 0.74.

Regarding B4, the “ratio to native IgG1” value turned out to be 1.36.

Consider B5, for which the “ratio to native IgG1” value worked out at 0.51.

For the molecule B6, the “ratio to native IgG1” value was 0.66.

In the case of B7, the “ratio to native IgG1” value turned out to be 1.72.

On to B8, for which the “ratio to native IgG1” value worked out at 1.16.

As to B9, the “ratio to native IgG1” value worked out at 1.44.

With B10, the “ratio to native IgG1” value is 1.08.

Regarding B11, the “ratio to native IgG1” value worked out at 0.82.

In the case of B12, the “ratio to native IgG1” value came to 0.86.

Consider B13, for which the “ratio to native IgG1” value was determined as 0.99.

On to B14, for which the “ratio to native IgG1” value turned out to be 0.21.

On to B15, for which the “ratio to native IgG1” value was found to be 1.09.

Turning to B16, the “ratio to native IgG1” value stood at 0.47.

For B17, the “ratio to native IgG1” value was 1.15.

Turning to B18, the “ratio to native IgG1” value amounted to 0.87.

On to B19, for which the “ratio to native IgG1” value was 1.01.

In the case of B20, the “ratio to native IgG1” value was 0.29.

For the molecule B21, the “ratio to native IgG1” value was 1.52.

B22: the “ratio to native IgG1” value was determined as 0.05.

Take B23: the “ratio to native IgG1” value was 1.14.

Turning to B24, the “ratio to native IgG1” value worked out at 0.11.

In the case of B25, the “ratio to native IgG1” value was 1.41.

With B26, the “ratio to native IgG1” value stood at 0.81.

For B27, the “ratio to native IgG1” value amounted to 0.71.

With B28, the “ratio to native IgG1” value is 1.06.

Take B29: the “ratio to native IgG1” value was 0.54.

For the molecule B30, the “ratio to native IgG1” value came to 0.91.

In the case of B31, the “ratio to native IgG1” value was 1.13.

With B32, the “ratio to native IgG1” value is 1.05.

For the molecule B33, the “ratio to native IgG1” value stood at 1.29.

For another test, the target named is T2, human FcγRIIB α subunit extracellular domain-6His-GST fusion (human, UniProt P31994 43-217).
T2 construct: not shown: glutathione S-transferase (GST)
T2 sequence: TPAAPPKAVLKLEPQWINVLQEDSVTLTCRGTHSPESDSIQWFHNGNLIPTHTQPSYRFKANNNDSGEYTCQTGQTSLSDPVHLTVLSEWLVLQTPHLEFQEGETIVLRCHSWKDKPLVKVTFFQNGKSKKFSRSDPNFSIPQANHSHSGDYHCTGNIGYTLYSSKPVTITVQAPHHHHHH
Briefly: ELISA, IgG:IgE hexamers on receptor-GST. For orientation: In an ELISA, binding on a coated surface is turned into a signal by an enzyme label.
Regarding B1, the “ratio to native IgG1” value came to 1.

Consider B2, for which the “ratio to native IgG1” value was found to be 0.71.

For the molecule B3, the “ratio to native IgG1” value turned out to be 0.72.

B4: the “ratio to native IgG1” value was 1.41.

B5: the “ratio to native IgG1” value stood at 0.4.

As to B6, the “ratio to native IgG1” value amounted to 0.37.

On to B7, for which the “ratio to native IgG1” value turned out to be 1.38.

B8: the “ratio to native IgG1” value turned out to be 1.29.

In the case of B9, the “ratio to native IgG1” value worked out at 1.62.

Take B10: the “ratio to native IgG1” value was 1.1.

With B11, the “ratio to native IgG1” value came out at 0.73.

With B12, the “ratio to native IgG1” value was found to be 0.65.

On to B13, for which the “ratio to native IgG1” value turned out to be 0.93.

With B14, the “ratio to native IgG1” value was determined as 0.12.

On to B15, for which the “ratio to native IgG1” value amounted to 0.79.

On to B16, for which the “ratio to native IgG1” value turned out to be 0.25.

As for B17, the “ratio to native IgG1” value is 1.33.

With B18, the “ratio to native IgG1” value was 0.63.

With B19, the “ratio to native IgG1” value worked out at 1.03.

B20: the “ratio to native IgG1” value was 0.27.

B21: the “ratio to native IgG1” value came out at 1.13.

With B22, the “ratio to native IgG1” value is 0.08.

As for B23, the “ratio to native IgG1” value was 1.42.

On to B24, for which the “ratio to native IgG1” value was 0.17.

Take B25: the “ratio to native IgG1” value was found to be 1.23.

Consider B26, for which the “ratio to native IgG1” value worked out at 0.77.

On to B27, for which the “ratio to native IgG1” value amounted to 0.75.

B28: the “ratio to native IgG1” value came out at 0.91.

As for B29, the “ratio to native IgG1” value came out at 0.29.

Turning to B30, the “ratio to native IgG1” value was found to be 0.78.

On to B31, for which the “ratio to native IgG1” value worked out at 1.09.

As to B32, the “ratio to native IgG1” value turned out to be 1.09.

Take B33: the “ratio to native IgG1” value worked out at 1.56.

The target in another test is T3, human FcγRIIIA-F158 α subunit extracellular domain-6His-GST fusion (human, UniProt P08637 17-208).
T3 construct: also called FcγRIIIA-Phe158; not shown: glutathione S-transferase (GST)
T3 sequence (P08637 other isoform, or with tags, fused parts or gaps, form in doubt): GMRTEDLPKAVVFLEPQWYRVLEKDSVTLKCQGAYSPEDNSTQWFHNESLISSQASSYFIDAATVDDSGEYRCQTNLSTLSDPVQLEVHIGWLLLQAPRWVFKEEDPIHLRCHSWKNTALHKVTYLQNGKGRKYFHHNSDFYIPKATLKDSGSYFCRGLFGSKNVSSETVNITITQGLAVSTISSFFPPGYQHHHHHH
Briefly: ELISA, IgG:IgE hexamers on receptor-GST.
As for B1, the “ratio to native IgG1” value was determined as 1.27.

For the molecule B2, the “ratio to native IgG1” value worked out at 0.33.

As for B3, the “ratio to native IgG1” value worked out at 1.3.

B4: the “ratio to native IgG1” value was found to be 1.15.

Regarding B5, the “ratio to native IgG1” value amounted to 1.13.

On to B6, for which the “ratio to native IgG1” value was 0.77.

With B7, the “ratio to native IgG1” value is 1.32.

As for B8, the “ratio to native IgG1” value was determined as 1.11.

Consider B9, for which the “ratio to native IgG1” value turned out to be 1.37.

Consider B10, for which the “ratio to native IgG1” value was determined as 1.23.

Consider B11, for which the “ratio to native IgG1” value turned out to be 0.81.

As to B12, the “ratio to native IgG1” value was 0.23.

Consider B13, for which the “ratio to native IgG1” value worked out at 0.49.

Turning to B14, the “ratio to native IgG1” value was 0.92.

Take B15: the “ratio to native IgG1” value amounted to 0.91.

Take B16: the “ratio to native IgG1” value amounted to 0.45.

For B17, the “ratio to native IgG1” value was determined as 0.68.

In the case of B18, the “ratio to native IgG1” value amounted to 0.46.

With B19, the “ratio to native IgG1” value stood at 1.19.

Turning to B20, the “ratio to native IgG1” value is 0.73.

Turning to B21, the “ratio to native IgG1” value was 0.96.

In the case of B22, the “ratio to native IgG1” value was 0.06.

In the case of B23, the “ratio to native IgG1” value is 0.34.

Turning to B24, the “ratio to native IgG1” value was 0.33.

Consider B25, for which the “ratio to native IgG1” value was found to be 0.98.

Take B26: the “ratio to native IgG1” value was determined as 0.61.

With B27, the “ratio to native IgG1” value stood at 1.15.

As for B28, the “ratio to native IgG1” value was found to be 0.42.

Turning to B29, the “ratio to native IgG1” value was found to be 0.88.

As for B30, the “ratio to native IgG1” value came out at 0.58.

In the case of B31, the “ratio to native IgG1” value was determined as 1.34.

Consider B32, for which the “ratio to native IgG1” value came out at 1.38.

Consider B33, for which the “ratio to native IgG1” value was 0.48.

Source of the values: US7183387 (Genentech, dated 2007).
